Here are results for three molecules from PMC9144871 (International Journal of Molecular Sciences, 2022).

Data set [1] deals with T1, SARS-CoV-2 spike RBD-His (SARS-CoV-2, UniProt P0DTC2). The experiment in a line: SPR. Particulars: both partners purified.
Data set [2] deals with the molecule itself. In words: mass spectrometry; S-plug3 checked for its dimeric state by mass spectrometry; conditions not given.
Data set [3] concerns the molecule itself. The experiment in a line: SEC-MALS; analytical SEC-LS: Superdex 75 increase 10/30 with miniDAWN TREOS and refractive index detector; about 1.0 mg protein loaded; 50 mM Tris-HCl, 150 mM NaCl, 2.5% glycerol, pH 7.8; 0.5 mL/min. Background: Size exclusion chromatography separates by hydrodynamic size, large species first.
The target of data set [4] is T1, SARS-CoV-2 spike RBD-His. In words: SPR. To be noted: both partners purified. This is another data set of the same source.

B1: S-plug3 (designed binder)
chain: SAMEEQAKFFLDKLQHELEDTQYQLLYKALALNKSQQEELQKQYKKTYDEYVTLAKKWAKAASSIPLNSITDEKLYKAMEKTASSPPGC
notes: also called S-plug2 with C-terminal arm PPGC; cysteine-locked S-plug
In the data set with SARS-CoV-2 spike RBD-His [1], B1 yielded an equilibrium dissociation constant (Kd) of 39.5 ± 1.1 nM. Further, the binding result in data set [2] is reported as “binds”.

B2: S-plug2 (designed binder)
chain: SAMEEQAKFFLDKLQHELEDTQYQLLYKALALNKSQQEELQKQYKKTYDEYVTLAKKWAKAASSIPLNSITDEKLYKAMEKTASS
notes: also called thermo-stabilised S-plug; mutated form of S-plug
Take B2: the “stoichiometry N” value in data set [3] is 2. Also, the Kd with SARS-CoV-2 spike RBD-His [1] worked out at 61.7 ± 2.3 nM.

B3: S-plug (designed binder)
chain: STIEEQAKTFLDKFNHEAEDLFYQSSLASWNYNTNITEENVQNMNNAGDKWSAFLKEQSTLAQMYPLQEIQNQTVKQQLQALQQN
notes: also called prototype S-plug
On to B3, for which, in data set [3], the “stoichiometry N” value was 2. Moreover, in the data set with SARS-CoV-2 spike RBD-His [4], the dissociation constant Kd is 50 to 200 nM.

By Kd is commonly meant a measure of binding affinity in units of concentration. Low values mean a tighter complex, high ones a looser complex. What is called stoichiometry N is a count of units in the complex or per binding partner.
